From article PMC9198812, “Residues located in the primase domain of the bacteriophage T7 primase-helicase are essential for loading the hexameric complex onto DNA” (The Journal of Biological Chemistry, 2022)

Target: the molecule itself
Test: mass photometry; self-association, monomers to hexamer; 8.7 nM gp4 (hexamer concentration) in 40 mM Tris-HCl pH 7.5, 150 mM KCl, 10 mM MgCl2, 25 °C, 15 min, with 10 nM 50-nt ssDNA and 1 mM [β,γ-CH2] dTTP; Refeyn OneMP

Protein | stoichiometry N
bacteriophage T7 primase-helicase gp4, wild type (63 kDa form) (enzyme, UniProt P03692 1-566, looked up, bacteriophage T7 gene 4 primase-helicase, full-length 63 kDa form (residues 1-566); also called WT gp4; gp4A) MDNSHDSDSVFLYHIPCDNCGSSDGNSLFSDGHTFCYVCEKWTAGNEDTKERASKRKPSGGKPMTYNVWNFGESNGRYSALTARGISKETCQKAGYWIAKVDGVMYQVADYRDQNGNIVSQKVRDKDKNFKTTGSHKSDALFGKHLWNGGKKIVVTEGEIDMLTVMELQDCKYPVVSLGHGASAAKKTCAANYEYFDQFEQIILMFDMDEAGRKAVEEAAQVLPAGKVRVAVLPCKDANECHLNGHDREIMEQVWNAGPWIPDGVVSALSLRERIREHLSSEESVGLLFSGCTGINDKTLGARGGEVIMVTSGSGMGKSTFVRQQALQWGTAMGKKVGLAMLEESVEETAEDLIGLHNRVRLRQSDSLKREIIENGKFDQWFDELFGNDTFHLYDSFAEAETDRLLAKLAYMRSGLGCDVIILDHISIVVSASGESDERKMIDNLMTKLKGFAKSTGVVLVVICHLKNPDKGKAHEEGRPVSITDLRGSGALRQLSDTIIALERNQQGDMPNLVLVRILKCRFTGDTGIAGYMEYNKETGWLEPSSYSGEEESHSESTDWSNDTDF | 6
bacteriophage T7 primase-helicase gp4 Y111A (63 kDa form) (enzyme, UniProt P03692 1-566, looked up, bacteriophage T7 gene 4 primase-helicase, 63 kDa form (residues 1-566), with Y111A made by site-directed mutagenesis on pET28-gp4A; also called Y111A gp4; gp4-Y11A [sic]) MDNSHDSDSVFLYHIPCDNCGSSDGNSLFSDGHTFCYVCEKWTAGNEDTKERASKRKPSGGKPMTYNVWNFGESNGRYSALTARGISKETCQKAGYWIAKVDGVMYQVADARDQNGNIVSQKVRDKDKNFKTTGSHKSDALFGKHLWNGGKKIVVTEGEIDMLTVMELQDCKYPVVSLGHGASAAKKTCAANYEYFDQFEQIILMFDMDEAGRKAVEEAAQVLPAGKVRVAVLPCKDANECHLNGHDREIMEQVWNAGPWIPDGVVSALSLRERIREHLSSEESVGLLFSGCTGINDKTLGARGGEVIMVTSGSGMGKSTFVRQQALQWGTAMGKKVGLAMLEESVEETAEDLIGLHNRVRLRQSDSLKREIIENGKFDQWFDELFGNDTFHLYDSFAEAETDRLLAKLAYMRSGLGCDVIILDHISIVVSASGESDERKMIDNLMTKLKGFAKSTGVVLVVICHLKNPDKGKAHEEGRPVSITDLRGSGALRQLSDTIIALERNQQGDMPNLVLVRILKCRFTGDTGIAGYMEYNKETGWLEPSSYSGEEESHSESTDWSNDTDF | 6
